MIC and stoichiometry N data for three molecules are collected here from paper PMC5772480, “Galectin-13, a different prototype galectin, does not bind β-galacto-sides and forms dimers via intermolecular disulfide bridges between Cys-136 and Cys-138” (Scientific Reports, 2018).

Values after ≈ are worked out from the molar mass of the structure shown.

The target of experiment [1] is T1, Gal-13 (galectin-13, placental protein 13, PP13) (Homo sapiens, UniProt Q9UHV8, R53H).
T1 construct: gene LGALS13; full length 1-139, synthetic gene in pET28a, E. coli BL21(DE3); N-terminal His tag removed by thrombin; disulfide-linked homodimer
T1 sequence (Q9UHV8 1-139 R53H): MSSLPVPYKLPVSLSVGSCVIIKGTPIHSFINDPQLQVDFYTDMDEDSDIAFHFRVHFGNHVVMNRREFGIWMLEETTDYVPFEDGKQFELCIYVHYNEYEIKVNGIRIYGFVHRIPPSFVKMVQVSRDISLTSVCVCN
Description: inhibition of hemagglutination of chicken erythrocytes. In kind it is cell-based. To be noted: pH 7.4 PBS, on ice; minimum inhibition concentration. The source says: inhibition of hemagglutination of chicken erythrocytes on Gal-13 (galectin-13, placental protein 13, PP13) | maltose and arabinose could inhibit the biological activity of […]

The target of experiment [2] is T2, Galectin-13 (wild type) (human), Q9UHV8.
T2 chain: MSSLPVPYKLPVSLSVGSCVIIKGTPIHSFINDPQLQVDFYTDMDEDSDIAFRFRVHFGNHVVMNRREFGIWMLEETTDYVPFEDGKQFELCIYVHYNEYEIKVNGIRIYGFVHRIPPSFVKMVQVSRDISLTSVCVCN
The experiment can be described thus: non-reducing SDS-PAGE; SDS-PAGE of Gal-13 with or without DTT reduction; dimer band at approximately 38 kDa without DTT. To be noted: remark: other sources report otherwise.

For experiment [3] the target is unchanged. The experiment can be described thus: native gel or EMSA; native PAGE, 15% separating gel, Tris-glycine buffer, 5 μg protein per lane, 90 V for 3 h; migration compared with Gal-1 (dimer) and C136S/C138S (monomer). To be noted: remark: other sources report otherwise. A general note: A gel shift assay detects complexes by their altered migration in electrophoresis.

Experiment [4] has the same target. Description: SEC; Superdex 75 10/300, PBS pH 7.4, 25 °C, 100 μg protein loaded, 0.5 ml/min; apparent molecular weights from a standard curve; Gal-13 also run in the presence of 10 mM DTT (mostly monomer, small amount of dimer). Particulars: remark: other sources report otherwise. In general terms: In gel filtration, larger molecules generally elute earlier.

In turn, `OC[C@H]1O[C@H](O[C@H]2[C@H](O)[C@@H](O)C(O)O[C@@H]2CO)[C@H](O)[C@@H](O)[C@@H]1O` (some centres unmarked) [maltose] had an MIC in experiment [1] of 12.5 mM (≈ 4.28 mg/mL).
In the case of `OC1OC[C@H](O)[C@H](O)[C@H]1O` (some centres unmarked) [arabinose], in experiment [1], the MIC amounted to 200 mM (≈ 30 mg/mL).

B1: Galectin-13 (wild type), Q9UHV8 1-139 (natural protein)
chain: MSSLPVPYKLPVSLSVGSCVIIKGTPIHSFINDPQLQVDFYTDMDEDSDIAFRFRVHFGNHVVMNRREFGIWMLEETTDYVPFEDGKQFELCIYVHYNEYEIKVNGIRIYGFVHRIPPSFVKMVQVSRDISLTSVCVCN
modifications: here or on the partner: intermolecular disulfide bonds Cys136-Cys138' and Cys138-Cys136' in the dimer; intermolecular disulfide bonds Cys136-Cys138' and Cys138-Cys136' in the dimer
With B1, the stoichiometry N in experiment [2], in experiment [3] and in experiment [4] was 2 in each case.
